From the supplement of paper PMC10724198
± gives the standard deviation of the averaged measurements.

These sequences were tested on Saccharomyces cerevisiae (assay: protein stability index of tFT-peptide fusion (C-terminal peptide) (PSI (0-1 scale)); higher = more stable (slower turnover)). Settings: genetic background: wild type; temperature: 30 C.
Experimental: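 Multiplexed protein stability (MPS) profiling in S. cerevisiae. Random 12-aa peptides (tFT-X12 library) are fused to the C-terminus of a sfGFP-mCherry tandem fluorescent timer, after mCherry and a GGGS linker. Cells are FACS-sorted into 8 mCherry/sfGFP bins and deep-sequenced. The protein stability index (PSI) is the read-weighted bin average, scaled from 0 (unstable) to 1 (stable). Only peptides with >10 reads are reported; cells were grown at 30 °C in SC-His with glucose.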
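Note: PSI is a weighted mean of sequencing reads over stability bins, variants kept only with over 10 reads, mCherry proximal and sfGFP distal, peptide attached via GGGS linker.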

In order of falling protein stability index:
1. FPPLRSLPPTPP  0.793 ± 0.12
2. FPQHPLFDPPAF  0.793 ± 0.013
3. FRSPRFLRSPPR  0.793 ± 0.064
4. FPPPLCLHRPIP  0.786 ± 0.1
5. FSLSVVGLSRWG  0.78 ± 0.1
6. GALPPPPARGDL  0.768 ± 0.024
7. FPSPPPGPHPSP  0.76336 ± 0.00013
8. FPSFHLCNIPST  0.757 ± 0.076
9. FPSCSAGLHLNL  0.7521 ± 0.0034
10. FPPHPPPPPPLN  0.743 ± 0.041
11. FVGMLSDRAPPP  0.742 ± 0.041
12. FSPPSPPHPSPL  0.741 ± 0.023
13. FVFDVTAYRGLL  0.738 ± 0.03
14. FSPSPPPPAPLH  0.729 ± 0.13
15. GAWVAVTWAAGL  0.729 ± 0.018
16. FPPPLHFPPLPA  0.723 ± 0.055
17. GAWVFLSSRVVH  0.7227 ± 0.0054
18. FPRLTYAPFLAD  0.722 ± 0.02
19. GAEAFWAVRGGG  0.721 ± 0.009
20. FSHRPSPLSLSL  0.719 ± 0.11
21. FTWRTIRPRCQW  0.7184 ± 0.005
22. FTYGPVQGAARG  0.717 ± 0.015
23. FPRPLPPLSPLL  0.7162 ± 0.0037
24. FSTIWSLPLSPR  0.716 ± 0.038
25. GARGIHSVRVRR  0.713 ± 0.053
26. FPPPPRPPLSFP  0.711 ± 0.078
27. GCFGLLVSSLFS  0.7111 ± 0.0024
28. GCGARSVQSLGD  0.707 ± 0.039
29. FVGSVFWCWSGR  0.706 ± 0.032
30. FPPLLASPPPSP  0.705 ± 0.011
31. GAAKDYLMALEG  0.705 ± 0.076
32. FVGSFYWSGFYV  0.70213 ± 0.00049
33. FSPLARMGSGTL  0.701 ± 0.0073
34. FRTLVEAGSLMD  0.6995 ± 0.00077
35. GAGAVRPPARAS  0.699 ± 0.059
36. FTPPPLLLPPPP  0.698 ± 0.0037
37. FPLPPHSSPLPP  0.695 ± 0.037
38. FQPQPSPAHPSH  0.693 ± 0.023
39. FYCSWGGNDVDN  0.692 ± 0.075
40. GASSSPAQGCSL  0.691 ± 0.048
41. GAIKKTQGGGYK  0.69 ± 0.019
42. GANSILRDIEFL  0.69 ± 0.05
43. FPPPSPPPLSPC  0.689 ± 0.024
44. FVVAERSDRNLV  0.6875 ± 0.00093
45. GAMVVRSSSPWT  0.685 ± 0.019
46. FSGGGRGLGGEV  0.684 ± 0.024
47. FRFNPGSCSRPV  0.681 ± 0.016
48. FSLTPSDPFPPA  0.681 ± 0.043
49. FPPPPPRPPRLP  0.68 ± 0.075
50. FPSSPPAHAAPH  0.68 ± 0.019
51. FSLYSFSSSFSF  0.677 ± 0.033
52. FVLLSPRYSPPR  0.676 ± 0.027
53. FPSSLPSAFPCP  0.675 ± 0.016
54. FTCVVRRGDIQL  0.675 ± 0.056
55. FRPLPPPPPSPT  0.672 ± 0.052
56. GATLGRQEPGHS  0.671 ± 0.056
57. GARGRAYDRTSQ  0.669 ± 0.038
58. GAVGDRVRVCGS  0.668 ± 0.02
59. FVSGSVCPLLPP  0.667 ± 0.026
60. GAKVALLSFGFA  0.667 ± 0.1
61. GAGRGLRQGSGG  0.666 ± 0.043
62. FWGGGRGLVGEV  0.664 ± 0.024
63. FSSSSVRINLGV  0.663 ± 0.01
64. GARGGSGGGQPG  0.661 ± 0.019
65. FRQQGGERVRWG  0.66 ± 0.0088
66. FSKSRLRNLKLK  0.655 ± 0.016
67. FTFFFNCYSRSS  0.655 ± 0.038
68. GAAVWGPLCVWL  0.6534 ± 0.0052
69. GCCACDIGGEGG  0.642 ± 0.0079
70. FPVWVKGLLGMG  0.636 ± 0.048
71. FSFVPRHGVSFR  0.6349 ± 0.0059
72. FPPLIPLPINHP  0.631 ± 0.1
73. FSAVRIQASLRW  0.629 ± 0.028
74. FWMIYPHLLTPP  0.629 ± 0.036
75. GATAGNPEATPS  0.624 ± 0.074
76. FRVEWKPLYHGI  0.623 ± 0.037
77. FWGRYIGRDRGT  0.62 ± 0.12
78. GCCWVVISPAGY  0.616 ± 0.044
79. GARGLVGHWRRG  0.615 ± 0.035
80. FSLGQCLFGLWV  0.612 ± 0.026
81. GAGLSLALSGPL  0.607 ± 0.0094
82. FSCPALCSCLAV  0.604 ± 0.087
83. FVCCSIRFGCGW  0.604 ± 0.014
84. FRLICSRQFFAG  0.593 ± 0.018
85. GAGGGRSERERG  0.593 ± 0.0074
86. FSLHPGTYLVVL  0.5913 ± 0.0026
87. FYPRPTVPPHGL  0.585 ± 0.024
88. FSRLNAKLPCLA  0.579 ± 0.06
89. FVSVSVRFHHSF  0.575 ± 0.056
90. FRVHSFRLSCLS  0.574 ± 0.022
91. FWGQNKVCLSCQ  0.571 ± 0.09
92. FVSFTAVALFFG  0.567 ± 0.035
93. FSFLFSFFFSFL  0.55971 ± 7.1e-07
94. FSYCFRLLPSSL  0.558 ± 0.096
95. FVFWCFGSFCSC  0.553 ± 0.015
96. FYLLTASVCGMF  0.53 ± 0.0053
97. FSFVTFYSICDV  0.528 ± 0.012
98. FSRCRRGLVLCL  0.479 ± 0.045
